Experiment: yeast display, Sf9 membrane polyspecificity reagent, FACS + sequencing; frameworks hold sequencing errors
Procedure, shortened: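 Genes from sorted yeast were amplified by colony PCR, read by MiSeq 2 × 250 sequencing and filtered on CDR length. These cells carried a synthetic nanobody library in Saccharomyces cerevisiae BJ5465 and were sorted by FACS into low and high (top ~1%) gates on anti-HA and streptavidin fluorescence. Polyreactivity is labelled according to the gate of origin.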

Row | Sequence | polyreactivity (PSR sort gate)
1 | QVQLVESGGGLVQAGGSLRLSCAPSGSIFDSNAMGWYRQAPGKERELVAAISSSGARTYYADSVKGRFTISRDNAKNTVYLQMNSLKPEDTAVYYCAARYAGGYYYWGQGTQVTVSS | high polyreactivity
2 | QVQLVESGGGLVQAGGSLRLSCAASGSTFYVYAMGWYRQAPGNERELVAAITSGGSTNYADSVKGRFTISRDNAKNTVYLQMNSLKPEDTAVYYCAAQGRVWDSYGYEYVQEVTRDYWGQGTQVTVSS | low polyreactivity
3 | QVQLEESGGGLVQAGGSLRLTCAASGSTFYGYAMGWYRQAPGKERELVAAITRSGGSTYYADSVKVRFTISRDNAKYTVYLQMNSLKPEDTAVYYCNKYIGWYGTGSDYYWGQGTQVNVSS | high polyreactivity
4 | QVQLVESGGGLVQAGGSLRLSCAASGFILRKYAMGWYRQAPGKERELVAAINGRGGTYYADSVKGRFTISRDNAKNTVYLQMNSLKPEDTAVYYCAAVEWYGYYTYTIDAYDYWGQGTQVTVSS | high polyreactivity
5 | QVQLVESGGGLVQAGGSLRLSCAASGLTFGYYAMGWYRQAPGKERELVAVISGGGGTHYADSVKGRFTISRDNAKITVYLQMNSLKPEDTAVYYCAARYRAQQIARYYYWGQGTQVTVSS | high polyreactivity
6 | QVQLVESGGGLVQAGGSLRLSCAASGSIFSTYVMGWYRQAPGKERELVAAISRRGGSTYYADSVKGRFTISRDNAKNTVYLQMNSLKPEDTAVYYCAARGQFRYSFGDYSWGQGTQVTVSS | high polyreactivity
7 | QVQLVESGGGLVQAGGSLRLSCAASGSIFQSYAMGWYRQAPGKERELVAGISSDGSTYYADSVKGRFTISRDNAKNTVYLQMNSLKPEDTAVYYCAAERWGNPTDYQFWRPYDYWGQGTQVTVSS | low polyreactivity
8 | QVQLVESGGGLVQAGGSLRLSCAASGFTFVYYAMGWYRQAPGKERELVAAISRGGSTYYADSVKGRFTISRDNAQNPVYLQMNSLKPEDTAVYYCNAKKSGHYVSYPAYDYWGQGTQVTVSS | low polyreactivity
9 | QVQLVESGGGLVQAGGSLRLSCAASGRTFYIYAMGWYRQAPGKERELVAAITYSSGTTYYADSVKGRFTISRDNAKNTVYLQMNSLKPEDTAVYYCAADVGFNQFDYWGQGTQVTVSS | low polyreactivity
10 | QVQLVESGGGLVQAGGSLRLSCAASGRIFSYYAMGWYRQAPGKERELVAAISRSGGRTYYADSVKGRFTISRDNAKNTVYLQMNSLKPEDTAVYYCAALQRDYSGRYPVSMYYWGQGTQVTVSS | high polyreactivity
11 | QVQLVESGGGLVQAGGSLRLSCAASGFTFKWYTMGWYRQAPGKERELVAGISRRGGSTYYADSVKGRFTISRDNAKNTFYLQMNSLKPEDTAVYYCAADSKLTKFYYWGQGTQVTVSS | high polyreactivity
12 | HAQLQESGGGLVQAGGSLRRSCAASGSIFRFSGMGWYRRAPGKERELVASIGFGSITYYADRVKGRFTISRDNANKTVYLQMNSLKPEDTAVYYCAVQVQDESWLDYWGQGTQVTVSC | low polyreactivity
13 | QVQLVESGGGLVQAGGSLRLSCAASGSTFWINAMGWYRPAPGKEREFVAAIRWNGGSTNYADSVKGRFTHSRDNAKNTVYLPMNSLKPEDTAVYYCAADGYIGWRHIYEYWGQGTQVTVSS | low polyreactivity
14 | QVQLVESGGGLVQAGGSLRLSCAASGITFRNYAMGWYRQAPGKERELVAAITTSGSRTYYADSVKGRFTISRDNAKNTVYLQMNSLKPEDTAVYYCAAEKAPWQYYDFEYWGQGTQVTVSS | high polyreactivity
15 | QVQLVESGGGLVQAGGSLRLSCAASGRTFFWYAMGWYRQAPGKERELVAAISSSTRTKYADSVKGRFTISRDNAKNTVYLQMNSLKPEDTAVYYCNAKGWVWPFPSYYPYDSWGQGTQVTVSS | high polyreactivity
16 | QVQLVESGGALVQAGGSLRLSCAASGSIIVYNDMRSSRQAPGKQRELVAAITSSGGSTYYADSVKGRFTISRDNAKNTVYLQMNSLKPEDTAVYYCNVWDRPLTGYDYRGQGTQVTVSS | low polyreactivity
17 | QVQLVESGGCLVQAGGSLRFSCAASGLTFGRNAMGWYRQAPGTERELVAAISRSGGRTSYADSVKGRFTMSRDNAKNTVYLQMNSLKPEETAVYYCAARSDVYTHDYWGQGTQVTVSS | high polyreactivity
18 | QVQLVESGGGLVQAGGSLRLSCAASGFTFRDNTMGWYRQAPGKERELVASISWSGGSTYYADSVKGRFTFSRDYAKNTVYLQMNSVKPEDTAVYYCAADDGSQYYFVSPHEYDYWGQGTQVTVSS | low polyreactivity
19 | QVQLVESGGGLVQAGGSLRLSCAASGSIFDYNAMGWYRQAPGKERELVAAISRSGGSTYYADSVKGRFTISRDNAKNTVYLQMNSLKPEDTAVYYCAALPSRPRGYDYWGHGTQVTVSS | high polyreactivity
20 | QVQLVESGGGLVQAGGSLRLSCAASGYIFGYYVMGWYRQAPGKERELVAAISDSDITYYADSVKGRFTISRDNAKNTVYLQMNSLKPEDTAVYYCNKDHSLYEHNYWGQGTLVTVSS | low polyreactivity
21 | QVHLVESGGGLVQAGGSLRLSCAASGFTFVSYAMGWYRQAPGKERELVDDINQSGGSTYYADSLKGRFTISRDNAKNTVYLQMNSQKPEDTAVYYCARDGDLWYYKGYGTLFDYWGQGTQVTVSS | low polyreactivity
22 | QVQLVESGGGLVQAGGSLRLSCAASGLTFNYYAMGWYRQPPGKESELVAAITSSGGRTYYADSVKGRFTISRDNAKNTGYLQMNSLKPEDTAVYYCNTVSYRLGAVWFSYDYWGQGTQVTVSS | high polyreactivity

Row | Sequence | polyreactivity (PSR sort gate)
23 | QVQLVESWGGLVQAGGSLRLSCAASGSTFGYYAMGWYRRAPGNEMELVAALSSSSSTNYADSVKGRFTISRDNAMNTVYLQMNRLIPEETAVYYCASDPYWLHWTFDYWGQGSQVTVSS | low polyreactivity
24 | QVQLEESGGGLVQAGGSLRLSCAASGRIFSRYAMGWYRQAPGKERELVAAITQSGTSTYYADSVKGRFTISRDNAKNTVYLQMTSLKPEDTAVYYCNAYRQYRYDYWGQGTQVTVSS | low polyreactivity
25 | QVQLVESGGGLVQAGGSLRLSCAASGFTFFQNHRGWYRQAPGTERELVADISYRGRRPYYADSVKGRFTISRDNAKNTVYLQMNCLKPVDTAVYYCARRSSKPSSIQYYYCGQGTQVTVSS | high polyreactivity
26 | QDQLVESGGGLVQAGGSLRLSCAASGRNFYRNAMGWYRPAPGKEWEVVAAITQSSGSTYYADSVKGRCTISRDNAKHTVYLQMNSLKPEDTAVYYCAALVRKYGVDYWGQGTQVTVSS | high polyreactivity
27 | QVQLVESGGGLVQAGGSLRLSCAASGFTFEIYAMGWYRQAPGKERELVAAITWSGGSTDYADSVKGRFTISRDNAKNSVYFQMNSLKPEDTAVYYCAAVTVQYVGYGYWGQGTQVTVSS | low polyreactivity
28 | QVQLLDSGGGLVQAGGSLRLSCAASGFTFDDYDKGWYRPPPGKERELVAAISWSGGSTYYADSVKGRFTISRDNAKNTVYLQMNSLKPEDTAVYYCAAERSYGGFDYWGQGTQVTVSS | low polyreactivity
29 | QVQLVESGGGLVQAGGSLRLSCAASGSTFYVNTMGWYRQAPGKERELVAVISRTGTSTYYADSVKGRFTISRDNAKNTVYFQMNCLKPEDTAVYYCAKRPLPGRPNRSILQYYYWGQVTQVTVSS | high polyreactivity
30 | QVQLVESGGGLVQAGGSLRLSCAASGSTFVYYAMGWYRQAPGKERELVAAISSSGGTTYYAVSEKGRFTISRDYGKNTGYLLMNSLKPEDTAVYFCAAPYASRGYEYWGQGTQVTVSS | high polyreactivity
31 | QVQLVQAGGGLVQAGGILRLSCAASGRIFRLYTMGWYRQAPGKERELVAAINSSGGNTYYADSVKGRFTISRDNAKNNVNLQMNSLKPEDTAVYYCAAGWSYPVRNIYYDWGQGTQVTVSS | high polyreactivity
32 | QVQLVESGGGLVQAGGSLRLSCAASGRILTSNAMGWYRQAPGKERELVAAISWSGGSTYYADSVKGRFTISRDNAKNTVYLQMNSLKPEDTAVYYCNADDTPVPSIRFDYWGQGTQVTVSS | low polyreactivity
33 | QVQLVESGGGLVQAGGSLRLSCAASGSTFLRYAMGWYRQAPGKERELVAAISVSGGSTYYADSVKGRFTISRDNAKNTVYLQMNSLKPEDTAVYYCNAVTKFHRRYNYWGQGTQVTVSS | high polyreactivity
34 | QVQLVESGGGLVQAGGSLRLSCAASGRTFGSYAMGCYRPAPVKEREVVAGITWRDGSTYYADSVKGRFTISRDNAKNTDYLQMNSLKPEDTAVYYCAKEAVRYYLFGMEYWGQGTQVTVSS | low polyreactivity
35 | QVQLVESGGCLVQAGGSLRLSCAASGSIFTRYAMGWYRQAPGKERELVADIRWGGGDTYYADSVKGRFTISRDNAKNTVYLQMNSLKPEDTAVYYCNADFGAPNTGRPEVQNSDEFGYWGQGTQVTVSS | low polyreactivity
36 | QVQLVESGGGLVQAGGSLRLSCAASGFIFTGYAMGWYRQAPGKERELVAAITKSGGSTYYADSVKGRFTISRDNAKNTVYLQMNSLKPEDTAVYYFNTYLWRWSKGGYLGQGTQVTVSS | high polyreactivity
37 | QVQLVESGGGLVQAGGSLSLICAASGSTFTENAMGWYRQAPGKERELVAVITSSDGTTYYADSVKGRFTISRDNAKNTVYLQMISLKPEDTAVSYCAADPYYFWWRYDFWGQGTQVTVSS | low polyreactivity
38 | QVQLVESGGGLVQAGGCLRLSCAASGFTFPFYAMGWYRQAPGKERELVAAITSRGGSTYYADSVKGRFTISRDNAKNTVYLQMNSLKPEHTAVYYCAARYTPRRYYYWGQGTQVTVSS | high polyreactivity
39 | QVHLVESGGGLVQAGGSLRLSCAASGSTFDHYAMAWYRQAPGKERELVASITLSGGSTYYADSVKGRFTISRDNAKNTVYLQMNSLKPEDTAVYYCAAVVVYPYRLGYDYWGQGTQVTVSS | low polyreactivity
40 | QVQLVESGGGLVQAGGSLRLSCAASGRIFVTNAMGWSRQGPGKERELVAAISYRGGRTYYADSVKGRFTISRDNAKNTVYLQMNSLKPEDTAVYYCNAVTRWPFDYWGQGTQVTVSS | high polyreactivity
41 | QVQLVESGGGLVQAGGSLRLSCAASGYTFRSYAMGWYRQAPGKEWEFVASISSSGGSTYYADSVKGRFTISRDNAKNTVYLQMNSLKPEDTAVYYCAASVVSYPYDEYDYWGQGTQVTVSS | low polyreactivity
42 | QVQLVESGGGLVQAGGSLRLSCAASGRIFGWYAMGWYRQAPGNEREFVAAITVTGGSTYYADSVKGRCTISRDNAKNTVYLQMNSLKPEDTAVYYCAADRWYTRTGFDYWGQGTQVTVSS | low polyreactivity
43 | QVQLVESGGGLVQAGGSLRLSCAASGSIFDSYVMGCYRQAPGTERELVAAITYSGGSTYADSVKGRFTISRDNAKNTVYLQMNSLKPEDTAVYYCAADYYRGRYSYRYDYWGQGTQVTVSS | low polyreactivity

— the nanobody polyreactivity screen of Harvey et al. (2022)
